Test results reported in the supplement of paper PMC10567573.

B1: FCHO1 (parent)
chain: DKLALCHLELTRKLQDLIKDVLRY
B2: PLAGL1 (parent)
chain: CKDFLCQFCAQRFGRKDHLTRHTK

Variants of: B1
Experiment: protein stability index of a GFP-peptide fusion (GPS, HEK-293T) (PSI 1-6); higher = more stable
Conditions: c terminus: a fixed tail appended
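Also: lentivirally expressed fusions sorted by FACS into six bins by GFP to DsRed ratio, PSI derived from sequencing read proportions per bin multiplied by bin number.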

Protein stability index: each site, then its substitutions
L22: N 1.47; M 2.35; Q 2.92; A 2.73; E 2.67; T 1.05; G 1.68; K 1.65; D 2.32; P 3.16; S 2.44
Y24: T 2.26; E 3.6; S 1.04; C 2.92; N 2.43; K 2.3; G 2.98; P 1.99
L17: H 2.06; F 2.42; N 2.13; I 2.89; V 2.4; Y 3.59; A 1.42; S 2.04; K 2.77; G 3.64; W 4.39; T 2.71; R 2.12; E 2.04; P 3.05; D 2.06; Q 1.35
V21: Y 2.3; P 2.13; S 1.83; D 1.43; H 3.97; N 2.02; I 2.97; F 2.25; T 2.53; E 2.24; R 2; G 2.84
D16: I 2.67; Y 2.42; N 3.32; M 2.46; P 2.15; C 3.11; F 2.36; V 2.92; W 2.1; S 2.2
D20: W 2.4; M 1.9; I 2.16; N 4.79; F 1.87; Y 2.3; V 2.67; P 2.52; L 2.19; K 1.71; C 1.11; G 3.57
K19: Y 2.43; S 1.71; P 2.36; N 2.69; C 2.7; Q 1.36; R 2.22; G 2.29; I 2.33; E 2.16; F 1.66; M 2.52; H 2.18; D 1.78; A 1.17
Q15: Y 2.79
I18: K 3.16; N 2.4; T 2.02; P 2.11; Y 2.52; F 3.1; E 3.6; H 2.12; G 2.33; S 2.6; Q 1.73; A 2.71; M 2.05; C 2.17; R 2.76; D 2.98
R23: L 2.59; Q 3.15; D 2.08; I 1.47; C 3.57; A 3.49; P 1.2

Variants of: B2
Experiment: as above
Conditions: c terminus: a fixed tail appended

Protein stability index of substitutions, site by site:
D3: W 1.73; Y 2.11; V 2.38; N 1.56; I 2.01; F 3.19; G 2.38; E 1.78; A 1.57; M 1.38; K 1.48; H 2.07; Q 2.76; C 1.31; T 1.77; P 1.73; L 1.86; S 1.51; R 1.81
F4: C 1.97; A 2.05
C1: L 2.25; P 2.2; Q 2.11; N 1.72; Y 2.44; V 1.67; G 1.93; W 1.84; F 1.64; R 2.04; S 2.7; T 1.76; I 2.46; D 2.31; M 1.53; A 3.04; K 2.11; H 2.02
K2: D 2.02; W 1.7; R 2.74; V 1.53; Q 2.08; E 2.13; F 2.35; T 2.09; L 1.85; S 1.74; P 2.52; I 1.78; G 2.43; M 1.46; C 2.44; H 2.46; Y 2.05; N 2.02; A 1.7
